# Results published in patent publication US20190092871A1 (VIB VZW, published 2019).
# T1: human CD20 (human, UniProt P11836 1-297)
# T1 construct: The forward primer starts at codon 2; also called hCD20; CHO-K1-hCD20
# T1 sequence: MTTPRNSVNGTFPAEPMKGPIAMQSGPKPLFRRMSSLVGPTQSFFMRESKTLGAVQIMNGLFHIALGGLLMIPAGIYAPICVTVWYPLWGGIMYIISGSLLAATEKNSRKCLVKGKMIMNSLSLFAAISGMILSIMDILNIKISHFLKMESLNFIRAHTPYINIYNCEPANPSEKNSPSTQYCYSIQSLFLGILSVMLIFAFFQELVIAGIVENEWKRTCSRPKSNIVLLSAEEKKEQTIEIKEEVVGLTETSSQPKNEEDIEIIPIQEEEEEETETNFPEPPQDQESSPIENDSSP
# T2: mouse CD20 (mouse, UniProt P19437 1-291)
# T2 construct: whole, on cells; also called mCD20; CHO-K1-mCD20
# T2 sequence (looked up): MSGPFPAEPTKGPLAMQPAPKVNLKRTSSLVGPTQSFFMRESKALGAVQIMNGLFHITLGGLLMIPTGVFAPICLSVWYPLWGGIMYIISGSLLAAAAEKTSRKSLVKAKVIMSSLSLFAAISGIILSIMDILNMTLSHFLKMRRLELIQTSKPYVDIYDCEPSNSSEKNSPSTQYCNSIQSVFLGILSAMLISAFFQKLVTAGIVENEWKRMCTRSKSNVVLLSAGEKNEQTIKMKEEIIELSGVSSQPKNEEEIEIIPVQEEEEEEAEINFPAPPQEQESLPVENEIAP
# How the values were obtained:
# human CD20 = target: T1, human CD20; assay: cell ELISA, crude periplasmic extract, CHO-K1 expressing human CD20 against parental CHO-K1
# mouse CD20 = target: T2, mouse CD20; assay: cell ELISA, crude periplasmic extract, CHO-K1 expressing mouse CD20 against parental CHO-K1
# Procedure: The library was subjected to 3 consecutive rounds of panning (in solution), performed on stably transfected CHO-K1 cells expressing mouse CD20. A parallel panning was performed on parental (non-transfected CHO-K1) cells to serve as negative control for the calculation of CD20-specific phage enrichment. The enrichment for antigen-specific phages was assessed after each round of panning by comparing the number of phagemid particles eluted from transfected cells with the number of phagemid particles eluted from parental cells. […] In total, 285 colonies (95 from each round of panning) were randomly selected and their crude periplasmic extracts (including soluble VHHs) were analyzed by cell ELISA for specific binding to transfected CHO-K1, as compared to parental cells. […] The 11 different VHHs belong to 2 different groups.
# The library was subjected to 2 consecutive rounds of panning (in solution), performed on stably transfected CHO-K1 cells expressing mouse CD20 as described above. Here, the phage population was enriched (for antigen-specific phages) about 2- and 45-fold after 1st and 2nd rounds of panning, respectively. Here, 190 colonies, randomly picked from 2nd round, were tested by cell ELISA as above and 10 colonies scored positive. Based on sequence data, the 10 positive colonies represented 8 different VHHs (FIG. 4, bottom panel). The 8 different VHHs belong to 2 different groups. One of the groups identified here is the same group as one of those identified above.
Binder,binding result (human CD20),binding result (mouse CD20)
"2HCD16 (VHH, Whole entry = VHH-AAA-HA-His6 (pMECS construct)) VHH: QVQLQESGGGLVQAGGSLRLSCAASGRTFSRQSMGWFRQAPGKEREFVAVITWSGGSPYYADSVRGRFTISRDNAKNTVYLQMNSLKPEDTAVYYCAAPVSYGSQWLADYWGQGTQVTVSS",binds,
"2HCD22 (VHH, Whole entry = VHH-AAA-HA-His6 (pMECS construct)) VHH: QVQLQESGGGLVQAGDSLRLSCAASGRTFSRQSMGWFRQAPGKEREFVAVITWSGGSPYYADSVKGRFTISRDNAKNTVYLQMNSLKPEDTAVYYCAAPVSYGSQWLADYWGQGTQVTVSS",binds,
"2HCD35 (VHH, Whole entry = VHH-AAA-HA-His6 (pMECS construct)) VHH: QVQLQESGGGLVQAGGSLRLSCAASGRTFSGQSMGWFRQAPGKEREFVAVITWSGGSPYYADSVRGRFTISRDNAKNTVHLQMNSLKPEDTAVYYCAAPVSYGSQWLADYWGQGTQVTVSS",binds,
"2HCD42 (VHH, Whole entry = VHH-AAA-HA-His6 (pMECS construct)) VHH: QVQLQESGGGLVQAGGSLRLSCAASGRTFSSYAMGWFRQAPGKEREFVAVITWSGGSPYYADSVRGRFTISRDNAKNTVYLQMNSLKPEDTAVYYCAAPVSYGSQWLADYWGQGTQVTVSS",binds,
"R3CD7 (VHH, Whole entry = VHH-AAA-HA-His6 (pMECS construct)) VHH: QVQLQESGGGLVQAGGSLRLSCAASGRSFSSVNMGWFRQAPGKEREFVAVIDWSGGSPYYTDSVRGRFTISRDNSKNTVYLQMNSLKPEDTAVYYCAAGVSYGSRWLGDYWGQGTQVTVSS",binds,
"R2MUC70 (VHH, Whole entry = VHH-AAA-HA-His6 (pMECS construct)) VHH: QVQLQESGGGLVQAGGSLRLSCAASGRDFATYSMAWFRQAPGKERESVATISWSGQRTRYADSVKGRFTISRDNAKNTVYLQMNSLKPEDTAVYYCAAPRTWGEFPPTQYDSWGQGTQVTVSS",,binds
"2MC52 (VHH, Whole entry = VHH-AAA-HA-His6 (pMECS construct)) VHH: QVQLQESGGGLVQAGGSLRLSCVASGRTFNTYSMGWFRQAPGKEREFVASISWSGQRSRYADSVKGRFTISRDNAKNTVYLQMNSLKPEDTAVYYCASPRTWGEFPPTQYDSWGQGTQVTVSS",,binds
"2MC57 (VHH, Whole entry = VHH-AAA-HA-His6 (pMECS construct); also called mCD20 Nb) VHH: QVQLQESGGGLVQAGGSLRLSCAASGRDFATYSMAWFRQAPGKERESVATISWSGQRTRYADSVKGRFTISRDNAKNTVYLQMNSLKPEDTAVYYCAMPRTWGEFPPTQYDSWGQGTQVTVSS",,binds
"R2MUC21 (VHH, Whole entry = VHH-AAA-HA-His6 (pMECS construct)) VHH: QVQLQESGGGLVQAGDSLRLSCAASGRDFSTYSMGWFRQAPGKERESVATISWSGQRTRYADSVKGRFTISRDNAKNTVYLQMNSLKPEDTAVYYCAAPRTWGEFPPTQYDSWGQGTQVTVSS",,binds
"R2MUC85 (VHH, Whole entry = VHH-AAA-HA-His6 (pMECS construct)) VHH: QVQLQESGGGLVQPGGSLRLSCATSGRDFATYSMAWFRQAPGKERESVATISWSGQRTRYADSVKGRFTISRDNAKNTVYLQMNSLKPEDTAVYYCAAPRTWGEFPPTQYDSWGQGTQVTVSS",,binds
"R3MUC17 (VHH, Whole entry = VHH-AAA-HA-His6 (pMECS construct)) VHH: QVQLQESGGGLVPAGGSLRLSCAASGRDFATYSMAWFRQAPGKERESVATISWSGQRTRYADSVKGRFTISRDNAKNTVYLQMNSLKPEDTAVYYCAAPRTWGEFPPTQYDSWGQGTQVTVSS",,binds
"R3MUC22 (VHH, Whole entry = VHH-AAA-HA-His6 (pMECS construct)) VHH: QVQLQESGGGLVQAGGSLRLSCAASGRTFSTYSMGWFRQAPGKEREFVAIISWSGQRTRYADSVKGRFTISRDNAKNTVYLQMNSLKPEDTAVYYCAAPRTWGEFPPTQYDSWGQGTQVTVSS",,binds
"R3MUC56 (VHH, Whole entry = VHH-AAA-HA-His6 (pMECS construct)) VHH: QVQLQESGGGLVQAGDSLRLSCAASGRDFATYSMAWFRQAPGKERESVATISWSGQRTRYADSVKGRFTISRDNAKNTVYLQMNSLKPEDTAVYYCAAPRTWGEFPPTQYDSWGQGTQVTVSS",,binds
"R3MUC57 (VHH, Whole entry = VHH-AAA-HA-His6 (pMECS construct)) VHH: QVQLQESGGGLVQAGGSLRLSCAASGRDFATYSMAWFRQAPGEERESVATISWSGQRTRYADSVKGRFTISRDNAKNTVYLQMNSLKPEDTAVYYCAAPRTWGEFPPTQYDSWGQGTQVTVSS",,binds
"R3MUC58 (VHH, Whole entry = VHH-AAA-HA-His6 (pMECS construct)) VHH: QVQLQESGGGLVQPGGSLRLSCAASGRDFATYSMAWFRQAPGKERESVATISWSGQRTRYADSVKGRFTISRDNAKNTVYLQMNSLKPEDTAVYYCAAPRTWGEFPPTQYDSWGQGTQVTVSS",,binds
"R3MUC66 (VHH, Whole entry = VHH-AAA-HA-His6 (pMECS construct)) VHH: QVQLQESGGGLVQAGGSLRLSCAASGRDFATYSMTWFRQAPGKERESVATISWSGQRTRYADSVKGRFTISRDNAKNTVYLQMNSLRPEDTAVYYCAAPRTWGEFPPTQYDSWGQGTQVTVSS",,binds
"R3MUC75 (VHH, Whole entry = VHH-AAA-HA-His6 (pMECS construct)) VHH: QVQLQESGGGSVQTGGSLRLSCAASGRDFSTYSMGWFRQAPGKERESVATISWSGQRTRYADSVKGRFTISRDNAKNTVYLQMNSLKPEDTAVYYCAAPRTWGEFPPTQYDSWGQGTQVTVSS",,binds
"R2MUC36 (VHH, Whole entry = VHH-AAA-HA-His6 (pMECS construct)) VHH: QVQLQESGGGLVQAEGSLRLSCAASGRTRDANAMGWFRQAPGKERELVAAISWSGSRTYYADSVKGRFTISRDNVMHTVYLSMNSLKPEDTAVYYCAADRSIEVQIADYDYWGRGTQVTVSS",,binds
"2MC39 (VHH, Whole entry = VHH-AAA-HA-His6 (pMECS construct)) VHH: QVQLQESGGGLAQAGNSLRISCVASGNTFDTRAMGWFRQAPGKEREFVAAISRSSFNTYYSDSVTGRFTISRDNAKNTVYLQMNSLKPEDTAVYYCAAGKYGMKWRDGADYWGQGTQVTVSS",,binds
"2MC20 (VHH, Whole entry = VHH-AAA-HA-His6 (pMECS construct)) VHH: QVQLQESGGGLVQTGGSLRLSCAASGNTFDTRAMGWFRQAPGKEREFVAAISRSSFNTYYSDSVTGRFTISRDNAKNTVYLQMNSLKPEDTAVYYCAAGKYGMKWRDGADYWGQGTQVTVSS",,binds
"2MC38 (VHH, Whole entry = VHH-AAA-HA-His6 (pMECS construct)) VHH: QVQLQESGGGLVQAGESLRISCVASGNTFDTRAMGWFRQAPGKEREFVAAISRSSFNTYYSDSVTGRFTISRDNAKNTVYLQMNSLKPEDTAVYYCVAGKYGMKWRDGADYWGQGTQVTVSS",,binds
"2MC42 (VHH, Whole entry = VHH-AAA-HA-His6 (pMECS construct)) VHH: QVQLQESGGGSVQTGGTLTLSCVASGNTFDTRAMGWFRQAPGEEREFVAAISRSSFNTYYSDSVTGRFTISRDNAKNTVYLQMNSLKPEDTAVYYCAAGKYGMKWRDGADYWGQGTQVTVSS",,binds
"2MC51 (VHH, Whole entry = VHH-AAA-HA-His6 (pMECS construct)) VHH: QVQLQESGGGLAQAGNSLRISCVASGNTFDTRAMGWFRQAPGKEREFVAAISRSSFNTYYSDSVTGRFTISRDNAKNTVYLQMNSLKPEDTAVYYCVAGKYGMKWRDGADYWGQGTQVTVSS",,binds
"2MC82 (VHH, Whole entry = VHH-AAA-HA-His6 (pMECS construct)) VHH: QVQLQESGGGLAQEGGSLRLSCVASGNTFDTRAMGWFRQAPGKEREFVAAISRSSFNTYYSDSVTGRFTISRDNAKNMVYLQMNSLKPEDTAVYYCAAGKYGMKWRDGADYWGQGTQVTVSS",,binds
